The source of these data is paper PMC10272835 (2023).

In general, koff refers to the rate constant with which the complex falls apart. A word on the Kd: it is the constant that tells how readily two partners part at equilibrium. A higher Kd goes with lower affinity.

Holding throughout (assay): SPR
(Surface plasmon resonance follows binding to a sensor surface in real time, without labels.)

In assay [1] the target is T1, N-terminal SH2 domain of SHP2.
T1 chain: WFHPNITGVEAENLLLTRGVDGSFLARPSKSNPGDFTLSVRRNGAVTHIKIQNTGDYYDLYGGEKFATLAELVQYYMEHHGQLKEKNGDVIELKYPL

For assay [2], the target named is T2, C-terminal SH2 domain of SHP2.
T2 chain: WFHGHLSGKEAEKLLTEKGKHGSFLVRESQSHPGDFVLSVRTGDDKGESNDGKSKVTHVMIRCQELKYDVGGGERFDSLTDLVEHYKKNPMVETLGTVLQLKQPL

For assay [3], the target named is T3, dual SH2 domains of SHP2.
T3 chain: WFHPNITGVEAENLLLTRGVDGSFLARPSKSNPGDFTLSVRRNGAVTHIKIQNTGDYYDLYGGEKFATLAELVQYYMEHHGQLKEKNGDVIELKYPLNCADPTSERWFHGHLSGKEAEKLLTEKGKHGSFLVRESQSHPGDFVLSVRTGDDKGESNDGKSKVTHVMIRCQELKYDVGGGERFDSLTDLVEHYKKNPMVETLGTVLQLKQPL

For assay [4], the target named is T1, N-terminal SH2 domain of SHP2.
The target in assay [5] is T2, C-terminal SH2 domain of SHP2.
Assay [6] deals with T3, dual SH2 domains of SHP2.

No end group written: not given here.

In the case of KEDPSAVPVFSVDYGELDFQWRE (also: phosphorylated, residue not given here, biotinylated, site not given here) [phosphorylated PD1 ITIM peptide], the off-rate constant (koff) was determined as 0.000297 s⁻¹ in assay [1], 0.00329 s⁻¹ in assay [2] and 0.000121 s⁻¹ with dual SH2 domains of SHP2 [3]. Also, the figures for the Kd (in assay [4]; in assay [5]; with dual SH2 domains of SHP2 [6]) were 3.35 nM, 0.638 nM and 1.84 nM, respectively.

B1: phosphorylated PD1 ITSM peptide (peptide)
chain: KTPEPPVPSVPEQTEYATIVFPSGMGTSS
modifications: also: phosphorylated, residue not given here, biotinylated, position not given here
For B1, the results for the Kd (in assay [4]; in assay [5]; in the assay with dual SH2 domains of SHP2 [6]) were 0.442 nM, 15.1 nM and 3.01 nM, respectively.
